Measurements published in US11278600B2, “Human alpha-galactosidase variants” (Codexis, Inc., priority 2014, dated 2022).
Substitutions are numbered along the chain they refer to.

B1: 574 (protein)
chain: LDNGLARTPTMGWLHWERFMCNLDCQEEPDSCISEKLFMEMAERMVSEGWKDAGYEYLCIDDCWMAPQRDSEGRLQADPQRFPHGIRQLANHVHSKGLKLGIYADVGNKTCAGFPGSFGYYDIDAQTFADWGVDLLKFDGCYCDSLENLADGYKHMSLALNRTGRSIVYSCEWPLYMWPFQKPNYTEIRQYCNHWRNFADIDDSWASIKSILDWTSRNQERIVDVAGPGGWNDPDMLVIGNFGLSWDQQVTQMALWAIMAAPLFMSNDLRHISPQAKALLQDKDVIAINQDPLGKQGYQLRKGDNFEVWERPLHGDAWAVAIINRQEIGGPRSYTIPVASLGKGVACNPACFITQLLPVKRQLGFYNWTSRLKSHINPTGTVLLQLENTMQMSLKDLL
modifications: Synthetic Polypeptide sequence of Variant No. 574 of mature Human GLA
B2: 575 (protein)
chain: B1 chain with H314N
modifications: Synthetic Polypeptide sequence of Variant No. 575 of mature Human GLA
B3: 577 (protein)
chain: B1 chain with W246A, H314S
modifications: Synthetic Polypeptide sequence of Variant No. 577 of mature Human GLA
B4: 578 (protein)
chain: B1 chain with W246I, H314S
modifications: Synthetic Polypeptide sequence of Variant No. 578 of mature Human GLA
B5: 576 (protein)
chain: B1 chain with H314Y
modifications: Synthetic Polypeptide sequence of Variant No. 576 of mature Human GLA
B6: 579 (protein)
chain: B1 chain with W246P, H314S
modifications: Synthetic Polypeptide sequence of Variant No. 579 of mature Human GLA

Assay: HTP-analysis of supernatants pretreated with acid (MUGal hydrolysis)
Type: biochemical
Conditions: activity of the variant/activity of Rd3BB (SEQ ID NO: 13); challenge at pH 3.7
Outline: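 MUGal hydrolysis was tracked by fluorescence (Ex 355 nm, Em 448 nm) after a 30-180 min reaction at 37° C. in pH 4.8 McIlvaine/citrate buffer, stopped with 1 M sodium carbonate. Beforehand, yeast (INVSc1) culture supernatants carrying GLA variants were held 1-3 h at 37° C. in acidic McIlvaine buffer, pH 3.3-4.3.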

Molecule	Relative Activity of GLA Variants After Challenge at pH 3.7
B1	+ (+ = 1.5 to 5 relative activity over Rd3BB (SEQ ID NO: 13))
B2	+ (+ = 1.5 to 5 relative activity over Rd3BB (SEQ ID NO: 13))
B3	+++ (+++ = >10 relative activity over Rd3BB (SEQ ID NO: 13))
B4	+++ (+++ = >10 relative activity over Rd3BB (SEQ ID NO: 13))
B5	+ (+ = 1.5 to 5 relative activity over Rd3BB (SEQ ID NO: 13))
B6	+++ (+++ = >10 relative activity over Rd3BB (SEQ ID NO: 13))

Assay: HTP-analysis of supernatants pretreated with base (MUGal hydrolysis)
Type: biochemical
Conditions: activity of the variant/activity of Rd3BB (SEQ ID NO: 13); challenge at pH 9.7
Outline: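 Supernatants from INVSc1 yeast expressing GLA variants (SD-Ura, 66-84 h, 30° C) were mixed with McIlvaine buffer pH 7.0-8.2 or 200 mM sodium bicarbonate pH 9.1-9.7 and held 1-18 h at 37° C. Residual activity was then measured on MUGal at pH 4.8/4.3, 37° C, 30-180 min, by fluorescence (Ex 355/Em 448 nm).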

Molecule	Relative Activity of GLA Variants After Challenge at pH 9.7
B1	++ (++ = >5 to 10 relative activity over Rd3BB (SEQ ID NO: 13))
B2	++ (++ = >5 to 10 relative activity over Rd3BB (SEQ ID NO: 13))
B3	++ (++ = >5 to 10 relative activity over Rd3BB (SEQ ID NO: 13))
B4	++ (++ = >5 to 10 relative activity over Rd3BB (SEQ ID NO: 13))
B5	++ (++ = >5 to 10 relative activity over Rd3BB (SEQ ID NO: 13))
B6	++ (++ = >5 to 10 relative activity over Rd3BB (SEQ ID NO: 13))

Assay: HTP-analysis of yeast culture supernatants, no challenge (MUGal hydrolysis)
Type: biochemical
Conditions: activity of the variant/activity of Rd3BB (SEQ ID NO: 13)
Outline: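 GLA variants were expressed in INVSc1 yeast grown in SD-Ura broth with glucose at 30° C., and culture supernatants were collected after 66-84 h. Supernatant was mixed with McIlvaine buffer pH 4.8 and MUGal (2 mM stock) in 50 mM citrate, 200 mM KCl, pH 4.6, incubated at 37° C. for 30-180 minutes, then quenched with sodium carbonate.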

Molecule	Relative Activity of GLA Variants After No Challenge (NC)
B1	+ (+ = 1.5 to 5 relative activity over Rd3BB (SEQ ID NO: 13))
B2	+ (+ = 1.5 to 5 relative activity over Rd3BB (SEQ ID NO: 13))
B3	+ (+ = 1.5 to 5 relative activity over Rd3BB (SEQ ID NO: 13))
B4	+ (+ = 1.5 to 5 relative activity over Rd3BB (SEQ ID NO: 13))
B5	+ (+ = 1.5 to 5 relative activity over Rd3BB (SEQ ID NO: 13))
B6	+ (+ = 1.5 to 5 relative activity over Rd3BB (SEQ ID NO: 13))
